Assay results from the supplement of paper PMC10567573.

B1: DYRK1B (parent)
chain: YQGPGTRRLQEVLGVQTGGPGGRR
B2: LMNB1 (parent)
chain: LYKEELEQTYHAKLENARLSSEMN

Variants of: B1
Assay: protein stability index of a GFP-peptide fusion (GPS, HEK-293T) (PSI 1-6); higher = more stable
Conditions: c terminus: a fixed tail appended
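Also: lentivirally expressed fusions sorted by FACS into six bins by GFP to DsRed ratio, PSI derived from sequencing read proportions per bin multiplied by bin number.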

Protein stability index: each site, then its substitutions
G18: K 2.6, N 3.34, H 3.19, A 3, I 2.4, D 4.02, M 2.79, C 3.07, P 2.84, F 3.23, E 3.52, L 2.74
V15: A 3.69, G 3.63, I 2.07, N 3.81, C 2.82, K 3.01, W 3.1, Y 2.92, M 2.24, F 3.62, T 2.96, S 3.59, D 3.23, L 2.68, R 3.34, Q 4, E 3.44
Q10: A 1.95, R 2.91, N 3.85, M 2.82, S 3.57, C 2.72, K 3.3, L 2.28, H 2.98, F 2.34, I 2.66, D 3.3, V 2.52, G 1.96, Y 2.25, E 3.82, P 4.21, T 3.39
Q16: N 3.32, M 2.98, P 2.77, W 2.26, H 3.75, F 2.01, I 1.74, L 2.96, T 2.78, V 2.61, C 2.1, G 3.42, E 3.39, R 3.09, S 2.82, D 4.06, K 3.55, Y 3.19, A 2.81
Q2: K 4.18, P 3.44, R 3.87, T 3.12, S 1.83, C 2.66, D 4.23, E 4.23, I 2.52, G 3.39, H 2.26, Y 3.7, W 2.95, M 3.83, N 2.26, F 3.22, L 2.5
R7: P 3.5, G 3.37, I 3.57, Q 3.76, W 1.77, T 3.54, S 3.45, F 2.04, Y 3.1, D 3.7, N 2.65, K 3.06, E 4.05, H 3.42, C 1.51, V 3.03, A 3.68, M 3.21
G5: A 3.44, T 3.22, S 3.42, R 2.58, W 1.08, E 3.74, V 3.4, P 2.8, H 3.17, Y 2.34, I 2.76, D 3.69, F 1.92, C 3.38, K 2.94, N 4.4, Q 4.42, M 2.46
G3: I 2.98, K 2.79, P 3.39, R 2.25, H 3.81, T 3.52, N 3.71, C 3.58, Q 3.11, W 3.1, V 2.38, S 3.44, L 3.23, A 3.31, D 3.83, F 2.77, M 3.03, E 4.32, Y 2.48
R8: I 2.75, Y 1.91, T 2.97, H 4.21, C 2.21, L 1.91, S 3.73, P 3.49, Q 3.67, V 2.66, M 2.35, D 3.55, E 4.51, N 3.45, W 3.27, K 2.9, G 3.14, A 3.24
T17: C 2.95, P 3.5, N 3.83, A 3.27, F 2.85, V 3.62, M 3.24, K 3.24, W 2.49, Y 3.11, L 3.3, I 2.75, Q 3.47, H 3.69, S 2.77, R 2.8, G 3.66, E 3.44, D 3.45
V12: A 2.84, D 4.34, L 3.19, E 3.66, W 2.92, P 3.69, Y 3.05, N 3.81, Q 3.5, G 3.32, T 3.75, C 3.26, F 2.94, M 2.59, K 2.33, I 3.58, R 2.91, H 3.66, S 3.19
P4: S 2.32, T 2.79, L 2.39, E 3.3, M 1.91, I 2.58, Y 2.35, C 2.29, R 2.78, D 2.81, F 1.68, N 2.69, K 2.63, Q 2.88, V 3.14, H 2.79, A 3.01, W 1.76
Y1: K 3.84, G 4.41, P 5.36, D 4.91, R 4.22, T 4.72, M 4.18, E 4.83, S 4.96, H 4.78, C 4.48, N 4.63, V 4.28, Q 4.04, I 4.33, A 4.7, F 3.84, W 3.9, L 4.32
L13: N 3.85, K 3.79, Y 3.63, T 3.97, E 4.44, G 3.9, C 3.88, R 3.61, D 3.93, W 1.67, M 3.31, P 3.44, I 3.47, A 3.58, F 2.9, S 4.07, H 3.94, V 3.68, Q 3.89
G14: V 3.14, P 4.17, A 2.92, R 3.37, Y 2.98, K 2.9, W 2.11, C 1.55, E 3.73, M 3.25, H 3.62, Q 3.72, N 4.25, I 2.14, D 4.18, L 2.75, F 2.66, T 2.66, S 3.14
L9: A 4.03, T 4.27, D 3.94, C 3.21, P 4, M 3.71, V 3.75, K 4.06, N 3.61, S 4.65, Q 4.31, G 4.47, E 3.79, I 2.97, R 3.9, H 2.81, Y 3.06, F 2.67, W 1.36
E11: H 2.43, L 2.28, V 2.56, Y 2.97, K 2.3, R 2.88, W 1.55, S 3, D 3.39, F 1.51, T 3.31, M 2.81, I 1.97, Q 2.68, P 2.73, G 3.78, N 2.98, A 2.57, C 2.44
T6: S 2.54, I 2.87, V 3.02, Q 3.4, C 2.32, H 2.67, M 3.28, N 2.68, L 2.37, A 2.71, W 2.17, R 3.51, P 3.04, G 3.32, Y 1.77, D 3.79, F 2.88, E 3.47, K 2.33

Variants of: B2
Assay: as above
Conditions: c terminus: a fixed tail appended

Protein stability index: each site, then its substitutions
N24: Y 2.27, V 2.26, S 2.64, T 2.46, Q 3.04, R 3.11, P 2.17, W 1.79
